Measurements reported in patent US20090304651A1 (published 2009).

Columns and labels:
[1] = target: T1, recombinant human IGF-II (Insulin-like Growth Factor II) (human, UniProt P01344 25-91, biotinylated (Biotinyl-IGF-II, GroPep) where immobilised in SPR, site not stated; not biotinylated in ITC and as SPR analyte); experiment: SPR, IGF-II immobilised, steady state
T1 construct: also called IGF2; IGF-2
Protocol: Kinetic analysis by Surface Plasmon Resonance (SPR) was conducted on a BIAcore 3000 biosensor (BIAcore, Uppsala, Sweden) at 25° C. in HBS-EP (10 mM HEPES, pH 7.4, 150 mM NaCl, 3 mM EDTA, 0.005% surfactant P20) at a flow rate of 40 μl/min. […] Kinetic experiments consisted of a two minute injection of analyte followed by a 100 s dissociation phase in running buffer, after which the binding surface was regenerated with a 2 minute injection of 2 M MgCl₂. A blank flow cell was used for in-line reference subtraction of changes due to differences in refractive index of running buffer versus sample and a buffer-only injection was used to subtract instrument noise and drift. Injections were performed in duplicate for each concentration and in a randomised order. Kinetic parameters were determined by global fitting of sensorgrams to a two-state (conformational change) binding model using BIAevaluation software version 4.0.1. In all cases the minor component made an insignificant contribution to the overall affinity and as such only the kinetic parameters of the major binding component were used. For each interaction the dissociation affinity constant (KD) was also calculated by fitting of the response of each concentration at equilibrium to a steady-state affinity model using BIAevaluation. […]

[2] = target: T1, recombinant human IGF-II (Insulin-like …); experiment: ITC
Protocol: Calorimetric measurements were performed using a VP-ITC microcalorimeter (MicroCal). All solutions were thoroughly degassed before use by stirring under vacuum. […] The sample cell contained either wild type domain 11 (7 uM) or the E1544A mutant (8 μM), also in HBS-E buffer. To correct for the heat effects of dilution and mixing, reaction heats obtained from a control experiment, in which IGF2 was injected into HBS-E, were subtracted. Calorimetric data were analysed using MicroCal ORIGIN software (version 5.0) supplied with the instrument. Thermodynamic parameters were derived by fitting the binding isotherms to a single-site binding model. Values for dissociation affinity constants (KD) were determined from duplicate experiments.
In order to validate the SPR sensorgram data, ITC was used to assess the binding affinity between domain 11 and IGF-II. The affinity of the E1544A mutant was also assessed by ITC in order to confirm whether use of a second technique agreed as to the apparent increase in affinity (FIG. 6 and Table 6). Titrations were performed using 17×15 μl injections of 40 μM IGF-II (after an initial 7.51 injection) into the reaction cell containing wild type domain 11 or the E1544A mutant. […] The two fold differences may be simply accounted for by the fidelity of both techniques.

T1 sequence (P01344 25-91 limits assumed): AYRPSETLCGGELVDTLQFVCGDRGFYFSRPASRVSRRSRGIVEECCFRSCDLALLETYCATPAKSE

Row | Binder | Kd [1] [nM] | relative affinity increase over wild type [2] [fold]
1 | wild type IGF2R domain 11 (amino acids 1511-1650) with C-terminal His6 tag, from Pichia pastoris (receptor, also called WT; wild type domain 11) NEHDDCQVTNPSTGHLFDLSSLSGRAGFTAAYSEKGLVYMSICGENENCPPGVGACFGQTRISVGKANKRLRYVDQVLQLVYKDGSPCPSKSGLSYKSVISFVCRPEAGPTNRPMLISLDKQTCTLFFSWHTPLACEQATHHHHHH | 103 | 
2 | IGF2R domain 11 E1544A (amino acids 1511-1650, C-terminal His6 tag, from Pichia pastoris) (receptor) NEHDDCQVTNPSTGHLFDLSSLSGRAGFTAAYSAKGLVYMSICGENENCPPGVGACFGQTRISVGKANKRLRYVDQVLQLVYKDGSPCPSKSGLSYKSVISFVCRPEAGPTNRPMLISLDKQTCTLFFSWHTPLACEQATHHHHHH |  | ~2
